Earlier results as cited in paper PMC7496540.

What was measured:
[1] = target: λ exonuclease (Escherichia phage lambda) (UniProt P03697)
[2] = target: SSB C-terminal peptide C-terminal nine residues (Escherichia coli) (UniProt P0AGE0)
Sequence of UniProt P0AGE0 (P0AGE0 whole entry, looked up): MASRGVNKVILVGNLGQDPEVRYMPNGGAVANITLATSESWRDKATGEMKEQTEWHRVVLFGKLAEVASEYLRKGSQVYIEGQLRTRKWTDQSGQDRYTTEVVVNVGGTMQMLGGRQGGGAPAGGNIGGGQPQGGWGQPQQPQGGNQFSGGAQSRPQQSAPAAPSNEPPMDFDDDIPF

Sequence of UniProt P03697 (P03697 whole entry): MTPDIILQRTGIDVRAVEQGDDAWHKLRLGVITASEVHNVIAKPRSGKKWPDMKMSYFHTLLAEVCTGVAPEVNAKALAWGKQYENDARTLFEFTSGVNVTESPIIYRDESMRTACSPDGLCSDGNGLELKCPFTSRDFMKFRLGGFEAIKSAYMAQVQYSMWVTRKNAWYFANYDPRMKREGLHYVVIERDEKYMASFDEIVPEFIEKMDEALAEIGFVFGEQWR

For Redβ (from UniProt P03698), the Kd [1] is given as 7.9 µM and the Kd [2] is given as 10 µM.
